Reference: patent publication US11142752B2, “Pullulanase mutant” (Jiangnan University, priority 2018, dated 2021)
Changes are numbered by the printed parent chain. Names and notes keep the numbering of the source.

B1: [Brevibacterium] halotolerans Wild enzyme: wild pullulanase of [Brevibacterium] halotolerans (OEC77647.1, SEQ ID NO: 23) (protein)
chain: MVSIQRSFEAYADEMNIITVLIPADQKDTFTPPFQLETDTAEIPLTVSQEWQIEGKCKYVCVAEQPVTFGKTHHVKASGGGKTDLQIGAVVRTDAFDAAFYYDGELGAVYTSDYTEFKVWAPAATSAAVKLSHPEKSGHTLQMTRMENGVYAVTVAGDLHGYEYVYRICNNLEWTETVDPYAKAVTVNGEKGVVLRPDQANSAPSLAPFSDPVDAIIYEMHIRDFSIHENSGMKNKGKYSALAETDTKTKNGSSTGLSYLKELGVTHIELLPLNDYAGVDEENPLAAYNWGYNPLHFFAPEGSYASNPHDPQTRNTEVKQMIHTLQQHGLRVILDVVYNHVYQREHSPFEKTVPGYFFRHDQFGMPSNGTGVGNDIASERRMARKFITDCVMYWLKEYDVDGFRFDLLGILDIETVLHMKEKASEVKPGILLFGEGWDLATPLPPEQKATLANASKMPGVGFFNDSFRDAVKGNTFHIAAAGFALGNGEQTETVMRGIAGSSGWKETAPLVSAPSQSINYVESHDNHTFWDKMSLALPQESESRKRSRQKLASAIILLAQGVPFIHSGQEFFRTKQGVENSYQSSDSINQLDWSRRETFKQDVDYVRRLISLRKAHPAFRLTSSADIQRCLECLALKEHLIVYRLFNLGAIDEWEEIIVIHHASPDSVTWQLPKDKAYRLLCDTDGFRADPGEIKKAVAVNGIGTVILF
modifications: bacterial
B2: Bacillus halotolerans Wild enzyme: wild pullulanase of Bacillus halotolerans (WP_106020274.1, SEQ ID NO: 26) (protein)
chain: MVCIQRSFEAYADEMNIITVLIPADQKDTFTPPFQLETDTAEIPLTVSQEWQIEGKYKYVCVAEQPVAFGKTHHVKASGGGKTDLQIGAVVRTDAFDAAFYYDGELGAVYASDYTEFKVWAPAATSAAVKLSHPEKSGYTLQMTRMENGVYAVTVAGDLHGYEYVYRICNNLEWTETVDPYAKAVTVNGEKGVVLRPDQANSAPSFTPFSAPVDAIIYEMHIRDFSIHENSGTKNKGKYAALAETDTKTKNGSSTGLSYLKELGVTHIELLPLNDYAGVDEENPLAAYNWGYNPLHFFAPEGSYSSNPHDPQTRNTEVKQMIHTLHQHGLRVILDVVYNHVYQREHSPFEKTVPGYFFRHDQFGMPSNGTGVGNDIASERRMARKFITDCVMYWLKEYDVDGFRFDLLGILDIETVLHMKEKASEVKSGILLFGEGWDLATPLPPEQKATLANASKMPGVGFFNDSFRDAVKGNTFHIAAAGFALGNGEKTETVMHGIAGSSGWKETAPLVSAPSQSINYVESHDNHTFWDKMSLALPQESESRKRSRQKLASAIILLAQGVPFIHSGQEFFRTKQGVENSYQSSDSINQLDWSRRETFKQDVDYVRRLISLRKAHPAFRLTSSADIQRCLECLALKEHLIVYRLFNLGAIDEWEEIIVIHHASPDSVTWQLPKDKAYRLLCDTDGFRADHGEIKKAVAVNGIGTVILYLARDLTSFA
modifications: bacterial
B3: Mutant F476V: Bacillus subtilis str. 168 pullulanase mutated at position 476 (F to V) (protein, UniProt C0SPA0 1-718, looked up, variant F476V)
Pullulanase: MVSIRRSFEAYVDDMNIITVLIPAEQKEIMTPPFRLETEITDFPLAVREEYSLEAKYKYVCVSDHPVTFGKIHCVRASSGHKTDLQIGAVIRTAAFDDEFYYDGELGAVYTADHTVFKVWAPAATSAAVKLSHPNKSGRTFQMTRLEKGVYAVTVTGDLHGYEYLFCICNNSEWMETVDQYAKAVTVNGEKGVVLRPDQMKWTAPLKPFSHPVDAVIYETHLRDFSIHENSGMINKGKYLALTETDTQTANGSSSGLAYVKELGVTHVELLPVNDFAGVDEEKPLDAYNWGYNPLHFFAPEGSYASNPHDPQTRKTELKQMINTLHQHGLRVILDVVFNHVYKRENSPFEKTVPGYFFRHDECGMPSNGTGVGNDIASERRMARKFIADCVVYWLEEYNVDGFRFDLLGILDIDTVLYMKEKATKAKPGILLFGEGWDLATPLPHEQKAALANAPRMPGIGFFNDMFRDAVKGNTVHLKATGFALGNGESAQAVMHGIAGSSGWKALAPIVPEPSQSINYVESHDNHTFWDKMSFALPQENDSRKRSRQRLAAAIILLAQGVPFIHSGQEFFRTKQGVENSYQSSDSINQLDWDRRETFKEDVHYIRRLISLRKAHPAFRLRSAADIQRHLECLTLKEHLIAYRLYDLDEVDEWKDIIVIHHASPDSVEWRLPNDIPYRLLCDPSGFQEDPTEIKKTVAVNGIGTVILYLASDLKSFA
B4: Mutant F476A: Bacillus subtilis str. 168 pullulanase mutated at position 476 (F to A) (protein, UniProt C0SPA0 1-718, looked up, variant F476A)
Pullulanase: B3 Pullulanase with V476A
B5: Mutant F476C: Bacillus subtilis str. 168 pullulanase mutated at position 476 (F to C) (protein, UniProt C0SPA0 1-718, looked up, variant F476C)
Pullulanase: B3 Pullulanase with V476C
B6: Geobacillus stearothermophilus Wild enzyme: wild pullulanase of Geobacillus stearothermophilus (KZE96788.1, SEQ ID NO: 20) (protein)
chain: MLHISRTFAAYLDEIDQITVIVPKARCLDNMEPFVMTAPSGEDIPLVVQQKEDLGDAVKYVCRFSVPFQIGETHWIRARSGEESDVQIGAVVRTAAFDDQFFYDGKLGVEYAKEQTIFRVWAPTATAVSVKLVHPDHGDVRYVPLVRGERGVWSVAVSGDWERARYMYVACINRVWREAVDPYATAVSVNGEHGVIVDWEKTKLAKPAPPLPPCPSPTDAVIYELSIRDFTSHPDSGAVWKGKYLGLTEEHTRGPNGTVTGLSYLKELGVTHVQLMPFADFAGVDERDPQAAYNWGYNPLHLYAPEGSYATDPHDPYARIVELKQAIRALQENGLRVVMDAVYNHVYDREQSPLENLVPGYYFRYDAYGRPANGTGVGNDIASERRMARRWIVDSVVFWAKEYGINGFRFDLMGVHDIETMKSVRDALDAIDPSILVYGEGWDLPTPLAPEQKATMANAKRLPRLAYFNDRFRDAVKGSTFYLPDRGFALGDSAGREQVKTAIAGSLQAFGGLFCHPLQSINYVECHDNHTFWDKMEAANGHEPEWLRRKRQKLATAIVLLAQGIPFLHSGQEFYRTKGGDENSYRSPDAVNRLDWERKSRYEDDVRYIQGLIAIRRAHGAFRLATEVDVQRHLTFLEPIPPSVIAYWLRDVALYGLWTDIVVIHHNEETGVVIALPDDGEWHVVCDGERSGTVPLRQVRRFLDADGIGTWVLVKTGAAADVENGK
modifications: bacterial

Key:
Experiment in all cases: Inhibitory effect of cyclodextrin on pullulanase enzyme activity (DNS method, pullulan substrate)
Type in all cases: biochemical
[1] = test system: pullulanase of [Brevibacterium] halotolerans
Description: (§1) 2. Measurement of Enzyme Activity of the Pullulanase:
(§2) A 3,5-dinitrosalicylic acid (DNS) method is adopted. The pullulanase catalyzes the hydrolysis of pullulan to produce reducing sugar under certain conditions, 3,5-dinitrosalicylic acid and the reducing sugar are reduced under thermal conditions to produce a brown-red amino complex, the color depth is directly proportional to the amount of the reducing sugar within a certain range, and the measurement can be performed at the wavelength of 540 nm so as to calculate the enzyme activity. Enzyme activity unit definition: the amount of the enzyme that catalyzes the production of the reducing sugar equivalent to 1 μmol of glucose reducing power per minute is defined as one activity unit.
(§3) 3. Measurement of the Enzyme Activity Comprises the Following Steps:
(§4) A. preheating: putting 1 mL of a 1% pullulan solution of which the pH value is 6.0 and 0.1 mL of a buffer solution of which the pH value is 6.0 in a centrifuge tube, and performing thermal insulation for 10 min on a water bath of 40° C.;
(§5) B. reaction: adding 0.1 mL (10 U) of an enzyme solution, performing shaking and mixing uniformly, performing accurate timing for 30 min, adding 1.5 mL of DNS for stopping reaction, performing treatment in a boiling water bath for 10 min, and performing instant cooling; and
(§6) C. measurement: measuring the light absorption value under the condition of 540 nm, and calculating the activity.
(§7) Reduction of the Inhibitory Effect of Enzyme Activity Characterization:
(§8) A. preheating: putting 1 mL of the 1% pullulan solution of which the pH value is 6.0 and 0.1 mL of 10 mM cyclodextrin in the centrifuge tube, and performing thermal insulation for 10 min on the water bath of 40° C.;
(§9) B. reaction: adding 0.1 mL (10 U) of the enzyme solution, performing shaking and mixing uniformly, performing accurate timing for 30 min, adding 1.5 mL of DNS for stopping reaction, performing treatment in the boiling water bath for 10 min, and performing instant cooling; and
(§10) On the basis, the phenylalanine at the position 481 of the Geobacillus stearothermophilus, the phenylalanine at the position 478 of the [Brevibacterium] halotolerans and the phenylalanine at the position 476 of the […] are mutated, obtained mutants and the mutation effects are shown in the table below. The key amino acid site is applicable to the pullulanase from different sources.

[2] = test system: pullulanase of Bacillus halotolerans
Description: as §1, §2, §3, §4, §5, §6, §7, §8, §9, §10

[3] = test system: pullulanase derived from Bacillus subtilis str. 168; settings: Bacillus subtilis str. 168 pullulanase, 1% pullulan pH 6.0, 40° C., 30 min; for Reduction rate of specific enzyme activity in existence of α-CD: inhibitor α-CD (0.1 mL of 10 mM cyclodextrin); for Reduction rate of specific enzyme activity in existence of β-CD: inhibitor β-CD (0.1 mL of 10 mM cyclodextrin); for Reduction rate of specific enzyme activity in existence of γ-CD: inhibitor γ-CD (0.1 mL of 10 mM cyclodextrin)
Description: as §1, §2, §3, §4, §5, §6, §7, §8
B. reaction: adding 0.1 mL (10 U) of the enzyme solution, performing shaking and mixing uniformly, performing accurate timing for 30 min, adding 1.5 mL of DNS for stopping reaction, performing treatment in the boiling water bath for 10 min, and performing instant cooling; and […]

[4] = test system: pullulanase of Geobacillus stearothermophilus
Description: as §1, §2, §3, §4, §5, §6, §7, §8, §9, §10

Row | Molecule | Reduction rate of specific enzyme activity in existence of α-CD [3] | Reduction rate of specific enzyme activity in existence of β-CD [3] | Reduction rate of specific enzyme activity in existence of γ-CD [3] | other results
1 | B1 | – | – | – | Reduction rate of specific enzyme activity in existence of α-CD ([1]; inhibitor α-CD): 15.3%; Reduction rate of specific enzyme activity in existence of β-CD ([1]; inhibitor β-CD): 47.2%; Reduction rate of specific enzyme activity in existence of γ-CD ([1]; inhibitor γ-CD): 6.1%
2 | B2 | – | – | – | Reduction rate of specific enzyme activity in existence of α-CD ([2]; inhibitor α-CD): 17.2%; Reduction rate of specific enzyme activity in existence of β-CD ([2]; inhibitor β-CD): 35.9%; Reduction rate of specific enzyme activity in existence of γ-CD ([2]; inhibitor γ-CD): 6.7%
3 | B3 | 7.2% | 16.7% | 12.3% | –
4 | B4 | 3.5% | 5.6% | 5.8% | –
5 | B5 | 4.3% | 17.2% | 5.6% | –
6 | B6 | – | – | – | Reduction rate of specific enzyme activity in existence of α-CD ([4]; inhibitor α-CD): 16.9%; Reduction rate of specific enzyme activity in existence of β-CD ([4]; inhibitor β-CD): 51.2%; Reduction rate of specific enzyme activity in existence of γ-CD ([4]; inhibitor γ-CD): 7.7%
